Measured values taken from patent US20220177579A1 (published 2022).
Residue numbers refer to the chain shown, from its start.

B1: CD19-BsAb BC250 (hFMC63 VL-2/VH-1b x CD3 IgG-scFv bispecific antibody) (bispecific antibody)
heavy: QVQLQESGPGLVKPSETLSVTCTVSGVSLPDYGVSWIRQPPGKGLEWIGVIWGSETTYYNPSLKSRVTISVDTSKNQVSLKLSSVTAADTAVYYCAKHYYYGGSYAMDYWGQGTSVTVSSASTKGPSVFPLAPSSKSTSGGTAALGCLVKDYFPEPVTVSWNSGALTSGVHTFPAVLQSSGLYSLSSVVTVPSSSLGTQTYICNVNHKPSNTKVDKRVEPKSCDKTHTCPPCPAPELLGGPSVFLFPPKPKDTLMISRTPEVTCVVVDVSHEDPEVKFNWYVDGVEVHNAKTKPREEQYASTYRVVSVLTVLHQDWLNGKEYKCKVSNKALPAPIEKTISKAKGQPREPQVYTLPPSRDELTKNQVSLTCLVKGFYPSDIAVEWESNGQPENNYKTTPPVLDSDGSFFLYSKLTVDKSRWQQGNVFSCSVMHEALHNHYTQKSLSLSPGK
light: DIQMTQSPSSLSASVGDRVTITCQASQDISKYLNWYQQKPGKAVKLLIYHTSRLHSGVPSRFSGSGSGTDYTLTISSLQPEDIATYFCQQGNTLPYTFGGGTKLEITRTVAAPSVFIFPPSDEQLKSGTASVVCLLNNFYPREAKVQWKVDNALQSGNSQESVTEQDSKDSTYSLSSTLTLSKADYEKHKVYACEVTHQGLSSPVTKSFNRGECTSGGGGSGGGGSGGGGSQVQLVQSGGGVVQPGRSLRLSCKASGYTFTRYTMHWVRQAPGKCLEWIGYINPSRGYTNYNQKFKDRFTISRDNSKNTAFLQMDSLRPEDTGVYFCARYYDDHYSLDYWGQGTPVTVSSGGGGSGGGGSGGGGSGGGGSGGGGSGGGGSDIQMTQSPSSLSASVGDRVTITCSASSSVSYMNWYQQTPGKAPKRWIYDTSKLASGVPSRFSGSGSGTDYTFTISSLQPEDIATYYCQQWSSNPFTFGCGTKLQITR
B2: L2+H8b (antibody, V domains shown)
VH: QVQLQESGPGLVKPSETLSVTCTVSGVSLPDYGVSWIRQPPGKGLEWIGVIWGSETTYYNPSLKSRLTISKDTSKNQFSLKLSSVTAADTAVYYCAKHYYYGGSYAMDYWGQGTSVTVSS
VL: DIQMTQSPSSLSASVGDRVTITCQASQDISKYLNWYQQKPGKAVKLLIYHTSRLHSGVPSRFSGSGSGTDYTLTISSLQPEDIATYFCQQGNTLPYTFGGGTKLEIT
B3: L3+H7b (antibody, V domains shown)
VH: B2 VH with V20L, L67V, N76S, L82M
VL: B2 VL with P8T, Q24R, L73F, F87Y
B4: L2+H6b (antibody, V domains shown)
VH: B2 VH with V20L, I48L, L67V, K71V, T73N
VL: B2 VL
B5: L2+H4 (antibody, V domains shown)
VH: B2 VH with V20L, Y58N, L67V, K71V, T73N, V85L
VL: B2 VL
B6: L1+H5b (antibody, V domains shown)
VH: B2 VH with V20L, Y58N, L67V, N76S, F78V
VL: B2 VL with Q24R, S56T
B7: L1+H2b (antibody, V domains shown)
VH: B2 VH with V20L, I48L, Y58N, L67V, V85L
VL: B2 VL with Q24R, S56T
B8: L3+H1b (antibody, V domains shown)
VH: B2 VH with L67V, K71V, F78V
VL: B2 VL with P8T, Q24R, L73F, F87Y
B9: L3+H5b (antibody, V domains shown)
VH: B2 VH with V20L, Y58N, L67V, N76S, F78V
VL: B2 VL with P8T, Q24R, L73F, F87Y
B10: L1+H7b (antibody, V domains shown)
VH: B2 VH with V20L, L67V, N76S, L82M
VL: B2 VL with Q24R, S56T
B11: L2+H3 (antibody, V domains shown)
VH: B2 VH with V20L, Y58N, K71V, L82M
VL: B2 VL
B12: L3+H6b (antibody, V domains shown)
VH: B2 VH with V20L, I48L, L67V, K71V, T73N
VL: B2 VL with P8T, Q24R, L73F, F87Y
B13: L2+H7b (antibody, V domains shown)
VH: B2 VH with V20L, L67V, N76S, L82M
VL: B2 VL
B14: L2+H2b (antibody, V domains shown)
VH: B2 VH with V20L, I48L, Y58N, L67V, V85L
VL: B2 VL
B15: L1+H3 (antibody, V domains shown)
VH: B2 VH with V20L, Y58N, K71V, L82M
VL: B2 VL with Q24R, S56T
B16: L1+H8b (antibody, V domains shown)
VH: B2 VH
VL: B2 VL with Q24R, S56T
B17: L3+H4 (antibody, V domains shown)
VH: B2 VH with V20L, Y58N, L67V, K71V, T73N, V85L
VL: B2 VL with P8T, Q24R, L73F, F87Y
B18: L1+H1b (antibody, V domains shown)
VH: B2 VH with L67V, K71V, F78V
VL: B2 VL with Q24R, S56T
B19: L3+H2b (antibody, V domains shown)
VH: B2 VH with V20L, I48L, Y58N, L67V, V85L
VL: B2 VL with P8T, Q24R, L73F, F87Y
B20: L3+H3 (antibody, V domains shown)
VH: B2 VH with V20L, Y58N, K71V, L82M
VL: B2 VL with P8T, Q24R, L73F, F87Y
B21: L3+H8b (antibody, V domains shown)
VH: B2 VH
VL: B2 VL with P8T, Q24R, L73F, F87Y
B22: L1+H4 (antibody, V domains shown)
VH: B2 VH with V20L, Y58N, L67V, K71V, T73N, V85L
VL: B2 VL with Q24R, S56T
B23: L2+H5b (antibody, V domains shown)
VH: B2 VH with V20L, Y58N, L67V, N76S, F78V
VL: B2 VL
B24: L1+H6b (antibody, V domains shown)
VH: B2 VH with V20L, I48L, L67V, K71V, T73N
VL: B2 VL with Q24R, S56T

Target: T1, human CD19 on CD19(+) NALM6 acute lymphoid leukemia cells (UniProt P15391 20-556)
T1 chain: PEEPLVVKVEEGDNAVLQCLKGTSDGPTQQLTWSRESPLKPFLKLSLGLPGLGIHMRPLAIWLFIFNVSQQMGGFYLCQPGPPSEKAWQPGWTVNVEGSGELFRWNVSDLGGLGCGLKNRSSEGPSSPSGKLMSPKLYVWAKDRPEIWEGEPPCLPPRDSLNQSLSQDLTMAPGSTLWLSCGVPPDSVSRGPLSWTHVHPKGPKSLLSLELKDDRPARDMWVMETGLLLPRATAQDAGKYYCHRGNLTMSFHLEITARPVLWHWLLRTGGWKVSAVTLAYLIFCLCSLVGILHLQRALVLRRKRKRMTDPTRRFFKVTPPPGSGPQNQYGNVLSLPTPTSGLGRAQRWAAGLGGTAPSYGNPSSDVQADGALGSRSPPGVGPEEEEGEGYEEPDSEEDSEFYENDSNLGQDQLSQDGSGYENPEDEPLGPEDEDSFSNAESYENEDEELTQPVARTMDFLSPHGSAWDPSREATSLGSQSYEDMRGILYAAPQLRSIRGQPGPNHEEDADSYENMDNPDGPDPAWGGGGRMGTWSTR
Experiment: FACS

Binder	EC50 [µg/mL]
B1	0.1
B2	0.1
B3	0.08
B4	0.08
B5	0.27
B6	0.18
B7	0.23
B8	0.19
B9	0.28
B10	0.07
B11	0.41
B12	0.13
B13	0.06
B14	0.17
B15	0.37
B16	0.13
B17	0.42
B18	0.13
B19	0.28
B20	0.64
B21	0.19
B22	0.25
B23	0.19
B24	0.08
